Laboratory results: PMC2749821 (BMC Biology, 2009)
Values belong to the binder of their own block, whether it stands above or below them.

B1: BMP receptor II (BMPR-II) ectodomain, human (receptor, UniProt Q13873 32-150, looked up)
chain: RLCAFKDPYQQDLGIGESRISHENGTILCSKGSTCYGLWEKSKGDINLVKQGCWSHIGDPQECHYEECVVTTTPPSIQNGTYRFCCCSTDLCNVNFTENFPPPDTTPLSPPHSFNRDET
modifications: N-biotinylated (sulfo-NHS-LC-biotin) where immobilised
notes: also called hBMPR-II
B4: bone morphogenetic protein 7 (BMP7), human (ligand, UniProt P18075 293-431, looked up)
chain: STGSKQRSQNRSKTPKNQEALRMANVAENSSSDQRQACKKHELYVSFRDLGWQDWIIAPEGYAAYYCEGECAFPLNSYMNATNHAIVQTLVHFINPETVPKPCCAPTQLNAISVLYFDDSSNVILKKYRNMVVRACGCH
modifications: biotin (sulfo-NHS-LC-biotin) where immobilised
notes: human BMP7, CHO-cell derived, bought; dimeric ligand; also called hBMP7; source: bought: R&D Systems (CHO-cell derived)

Key:
Settings in all cases: both partners purified
[1] = biological target: B4; test: SPR; Biacore 2000; ligands as analyte over biotinylated receptor ectodomains (about 200 RU) on streptavidin-coated CM5 chips; HBS500 (10 mM HEPES pH 7.4, 500 mM NaCl, 3.4 mM EDTA, 0.005% P20), 25°C, 10 μl/min; apparent affinities, 1:2 interaction with avidity
[2] = biological target: B4; test: SPR; Biacore 2000; receptor ectodomains as analyte over biotinylated ligands on streptavidin-coated CM5 chips; HBS500, 25°C, 10 μl/min; apparent affinities, 1:1 interaction
[3] = biological target: B1; test: SPR; Biacore 2000; ligands as analyte over biotinylated receptor ectodomains (about 200 RU) on streptavidin-coated CM5 chips; HBS500 (10 mM HEPES pH 7.4, 500 mM NaCl, 3.4 mM EDTA, 0.005% P20), 25°C, 10 μl/min; apparent affinities, 1:2 interaction with avidity
[4] = biological target: B1; test: SPR; Biacore 2000; receptor ectodomains as analyte over biotinylated ligands on streptavidin-coated CM5 chips; HBS500, 25°C, 10 μl/min; apparent affinities, 1:1 interaction
[5] = biological target: T1, activin receptor type II (ActR-II) ectodomain, human (human, UniProt P27037 18-135, N-biotinylated (sulfo-NHS-LC-biotin) where immobilised); test: SPR; Biacore 2000; ligands as analyte over biotinylated receptor ectodomains (about 200 RU) on streptavidin-coated CM5 chips; HBS500 (10 mM HEPES pH 7.4, 500 mM NaCl, 3.4 mM EDTA, 0.005% P20), 25°C, 10 μl/min; apparent affinities, 1:2 interaction with avidity
T1 construct: also called hActR-II

[6] = biological target: T1, activin receptor type II (ActR-II) …; test: SPR; Biacore 2000; receptor ectodomains as analyte over biotinylated ligands on streptavidin-coated CM5 chips; HBS500, 25°C, 10 μl/min; apparent affinities, 1:1 interaction

Binder: B1
Kd [1]: 40 nM | koff [1]: 0.024 s⁻¹ | kon [1]: 960000 M⁻¹ s⁻¹ | Kd [2]: 9100 nM | koff [2]: > 0.1 s⁻¹

Binder: B4
KD (kin) [3]: 25 nM | KD (kin) [5]: 5.1 nM | Kd [5]: 8 nM | koff [5]: 0.0062 s⁻¹ | kon [5]: 1.2e+06 M⁻¹ s⁻¹ | Kd [6]: 880 nM | koff [6]: > 0.1 s⁻¹

Other lines, results leading:

KD (kin) [3]: 45 nM | Kd [3]: 59 nM | Kd [4]: 13000 nM
B2: bone morphogenetic protein 2 (BMP2), mature part, wild type (ligand, human)
chain: MAQAKHKQRKRLKSSCKRHPLYVDFSDVGWNDWIVAPPGYHAFYCHGECPFPLADHLNSTNHAIVQTLVNSVNSKIPKACCVPTELSAISMLYLDENEKVVLKNYQDMVVEGCGCR
modifications: biotin (sulfo-NHS-LC-biotin) where immobilised
notes: N-terminal Met-Ala added to the mature part; dimeric ligand; also called wtBMP2; BMP2wt; source: E. coli, isolated from inclusion bodies, renatured and purified

KD (kin) [3]: 36 nM | Kd [3]: 46 nM | Kd [4]: 60000 nM
B3: growth and differentiation factor 5 (GDF5), mature part (ligand)
chain: MKRQGKRPSKNLKARCSRKALHVNFKDMGWDDWIIAPLEYEAFHCEGLCEFPLRSHLEPTNHAVIQTLMNSMDPESTPPTCCVPTRLSPISILFIDSANNVVYKQYEDMVVESCGCR
modifications: biotin (sulfo-NHS-LC-biotin) where immobilised
notes: N-terminal Met-Lys added to the mature part; dimeric ligand; source: E. coli, isolated from inclusion bodies, renatured and purified
